Here are results for 6 molecules from patent US20230395193A1 (priority 2020, published 2023).

B1: M-Q9ULF5 (protein, UniProt Q9ULF5 26-831, looked up)
Zinc transporter ZIP10: HEEHDHGPEALHRQHRGMTELEPSKFSKQAAENEKKYYIEKLFERYGENGRLSFFGLEKLLTNLGLGERKVVEINHEDLGHDHVSHLDILAVQEGKHFHSHNHQHSHNHLNSENQTVTSVSTKRNHKCDPEKETVEVSVKSDDKHMHDHNHRLRHHHRLHHHLDHNNTHHFHNDSITPSERGEPSNEPSTETNKTQEQSDVKLPKGKRKKKGRKSNENSEVITPGFPPNHDQGEQYEHNRVHKPDRVHNPGHSHVHLPERNGHDPGRGHQDLDPDNEGELRHTRKREAPHVKNNAIISLRKDLNEDDHHHECLNVTQLLKYYGHGANSPISTDLFTYLCPALLYQIDSRLCIEHFDKLLVEDINKDKNLVPEDEANIGASAWICGIISITVISLLSLLGVILVPIINQGCFKFLLTFLVALAVGTMSGDALLHLLPHSQGGHDHSHQHAHGHGHSHGHESNKFLEEYDAVLKGLVALGGIYLLFIIEHCIRMFKHYKQQRGKQKWFMKQNTEESTIGRKLSDHKLNNTPDSDWLQLKPLAGTDDSVVSEDRLNETELTDLEGQQESPPKNYLCIEEEKIIDHSHSDGLHTIHEHDLHAAAHNHHGENKTVLRKHNHQWHHKHSHHSHGPCHSGSDLKETGIANIAWMVIMGDGIHNFSDGLAIGAAFSAGLTGGISTSIAVFCHELPHELGDFAVLLKAGMTVKQAIVYNLLSAMMAYIGMLIGTAVGQYANNITLWIFAVTAGMFLYVALVDMLPEMLHGDGDNEEHGFCPVGQFILQNLGLLFGFAIMLVIALYEDKIVFDIQF
B2: M-Q9ULX6 (protein, UniProt Q9ULX6 1-646, looked up)
A-kinase anchor protein 8-like: MSYTGFVQGSETTLQSTYSDTSAQPTCDYGYGTWNSGTNRGYEGYGYGYGYGQDNTTNYGYGMATSHSWEMPSSDTNANTSASGSASADSVLSRINQRLDMVPHLETDMMQGGVYGSGGERYDSYESCDSRAVLSERDLYRSGYDYSELDPEMEMAYEGQYDAYRDQFRMRGNDTFGPRAQGWARDARSGRPMASGYGRMWEDPMGARGQCMSGASRLPSLFSQNIIPEYGMFQGMRGGGAFPGGSRFGFGFGNGMKQMRRTWKTWTTADFRTKKKKRKQGGSPDEPDSKATRTDCSDNSDSDNDEGTEGEATEGLEGTEAVEKGSRVDGEDEEGKEDGREEGKEDPEKGALTTQDENGQTKRKLQAGKKSQDKQKKRQRDRMVERIQFVCSLCKYRTFYEDEMASHLDSKFHKEHFKYVGTKLPKQTADFLQEYVTNKTKKTEELRKTVEDLDGLIQQIYRDQDLTQEIAMEHFVKKVEAAHCAACDLFIPMQFGIIQKHLKTMDHNRNRRLMMEQSKKSSLMVARSILNNKLISKKLERYLKGENPFTDSPEEEKEQEEAEGGALDEGAQGEAAGISEGAEGVPAQPPVPPEPAPGAVSPPPPPPPEEEEEGAVPLLGGALQRQIRGIPGLDVEDDEEGGGGAP
B3: E-Q8IWA5 (protein, UniProt Q8IWA5 1-706, looked up)
Choline transporter-like …: MGDERPHYYGKHGTPQKYDPTFKGPIYNRGCTDIICCVFLLLAIVGYVAVGIIAWTHGDPRKVIYPTDSRGEFCGQKGTKNENKPYLFYFNIVKCASPLVLLEFQCPTPQICVEKCPDRYLTYLNARSSRDFEYYKQFCVPGFKNNKGVAEVLQDGDCPAVLIPSKPLARRCFPAIHAYKGVLMVGNETTYEDGHGSRKNITDLVEGAKKANGVLEARQLAMRIFEDYTVSWYWIIIGLVIAMAMSLLFIILLRFLAGIMVWVMIIMVILVLGYGIFHCYMEYSRLRGEAGSDVSLVDLGFQTDFRVYLHLRQTWLAFMIILSILEVIIILLLIFLRKRILIAIALIKEASRAVGYVMCSLLYPLVTFFLLCLCIAYWASTAVFLSTSNEAVYKIFDDSPCPFTAKTCNPETFPSSNESRQCPNARCQFAFYGGESGYHRALLGLQIFNAFMFFWLANFVLALGQVTLAGAFASYYWALRKPDDLPAFPLFSAFGRALRYHTGSLAFGALILAIVQIIRVILEYLDQRLKAAENKFAKCLMTCLKCCFWCLEKFIKFLNRNAYIMIAIYGTNFCTSARNAFFLLMRNIIRVAVLDKVTDFLFLLGKLLIVGSVGILAFFFFTHRIRIVQDTAPPLNYYWVPILTVIVGSYLIAHGFFSVYGMCVDTLFLCFLEDLERNDGSAERPYFMSSTLKKLLNKTNKKAAES
B4: E-Q6DD88 (protein, UniProt Q6DD88 1-541, looked up)
Atlastin-3: MLSPQRVAAAASRGADDAMESSKPGPVQVVLVQKDQHSFELDEKALASILLQDHIRDLDVVVVSVAGAFRKGKSFILDFMLRYLYSQKESGHSNWLGDPEEPLTGFSWRGGSDPETTGIQIWSEVFTVEKPGGKKVAVVLMDTQGAFDSQSTVKDCATIFALSTMTSSVQIYNLSQNIQEDDLQQLQLFTEYGRLAMDEIFQKPFQTLMFLVRDWSFPYEYSYGLQGGMAFLDKRLQVKEHQHEEIQNVRNHIHSCFSDVTCFLLPHPGLQVATSPDFDGKLKDIAGEFKEQLQALIPYVLNPSKLMEKEINGSKVTCRGLLEYFKAYIKIYQGEDLPHPKSMLQATAEANNLAAAASAKDIYYNNMEEVCGGEKPYLSPDILEEKHCEFKQLALDHFKKTKKMGGKDFSFRYQQELEEEIKELYENFCKHNGSKNVFSTFRTPAVLFTGIVALYIASGLTGFIGLEVVAQLFNCMVGLLLIALLTWGYIRYSGQYRELGGAIDFGAAYVLEQASSHIGNSTQATVRDAVVGRPSMDKKAQ
modifications: interactor of SARS-CoV-2 E
B5: E-Q6UX04 (protein, UniProt Q6UX04 2-472, looked up)
Spliceosome-associated …: SNIYIQEPPTNGKVLLKTTAGDIDIELWSKEAPKACRNFIQLCLEAYYDNTIFHRVVPGFIVQGGDPTGTGSGGESIYGAPFKDEFHSRLRFNRRGLVAMANAGSHDNGSQFFFTLGRADELNNKHTIFGKVTGDTVYNMLRLSEVDIDDDERPHNPHKIKSCEVLFNPFDDIIPREIKRLKKEKPEEEVKKLKPKGTKNFSLLSFGEEAEEEEEEVNRVSQSMKGKSKSSHDLLKDDPHLSSVPVVESEKGDAPDLVDDGEDESAEHDEYIDGDEKNLMRERIAKKLKKDTSANVKSAGEGEVEKKSVSRSEELRKEARQLKRELLAAKQKKVENAAKQAEKRSEEEEAPPDGAVAEYRREKQKYEALRKQQSKKGTSREDQTLALLNQFKSKLTQAIAETPENDIPETEVEDDEGWMSHVLQFEDKSRKVKDASMQDSDTFEIYDPRNPVNKRRREESKKLMREKKERR
modifications: interactor of E protein
B6: E-Q8WY22 (protein, UniProt Q8WY22 1-251, looked up)
BRI3-binding protein: MGARASGGPLARAGLLLLLLLLLLLGLLAPGAQGARGRGGAEKNSYRRTVNTFSQSVSSLFGEDNVRAAQKFLARLTERFVLGVDMFVETLWKVWTELLDVLGLDVSNLSQYFSPASVSSSPARALLLVGVVLLAYWFLSLTLGFTFSVLHVVFGRFFWIVRVVLFSMSCVYILHKYEGEPENAVLPLCFVVAVYFMTGPMGFYWRSSPSGPSNPSNPSVEEKLEHLEKQVRLLNIRLNRVLESLDRSKDK
modifications: prey of SARS-CoV-2 E

The subject of the assay is SARS-CoV-1, MERS-CoV and SARS-CoV-2 proteins in HEK293T cells. Also on record: species or system human.
In turn, B1 came in with an MIST_MERS of 0, an MIST_SARS1 of 0.7375, an MIST_SARS2 of 0 and a Saint_MERS of 0. The molecule further registered a Saint_SARS1 of 1 and a Saint_SARS2 of 0.

Turning to B2, the MIST_MERS turned out to be 0, the MIST_SARS1 was 0.34, the MIST_SARS2 was 0.752 and the Saint_MERS is recorded as 0. For the same molecule, the Saint_SARS1 is on record as 0.98 and the Saint_SARS2 was determined as 1.

Regarding B3, the MIST_MERS stood at 0, the MIST_SARS1 amounted to 0, the MIST_SARS2 stood at 0.9503 and the Saint_MERS stood at 0. In addition, the Saint_SARS1 was 0 and the Saint_SARS2 is listed as 0.98.

Turning to B4, the MIST_MERS was 0.9832, the MIST_SARS1 is on record as 0, the MIST_SARS2 is on record as 0 and the Saint_MERS is 1. For the same molecule, the Saint_SARS1 is recorded as 0 and the Saint_SARS2 stood at 0.

B5: the MIST_MERS was found to be 0.03892, the MIST_SARS1 is recorded as 0.6535, the MIST_SARS2 is given as 0.8931 and the Saint_MERS came to 0. For the same molecule, the Saint_SARS1 is 0.98 and the Saint_SARS2 is given as 0.66.

For the molecule B6, the MIST_MERS is 0.9912, the MIST_SARS1 is reported as 0, the MIST_SARS2 was 0 and the Saint_MERS was determined as 1. This molecule returned a Saint_SARS1 of 0 and a Saint_SARS2 of 0.
